Experimental data: PMC3731569 (Cell Research, 2013)

Molecular target: Human DPP4 extracellular domain (residues 39-766) (human, UniProt P27487 39-766)
Assay: […], ~10 mg/ml in HBS

Human DPP4 extracellular domain (residues 39-766), sequence (P27487 39-766): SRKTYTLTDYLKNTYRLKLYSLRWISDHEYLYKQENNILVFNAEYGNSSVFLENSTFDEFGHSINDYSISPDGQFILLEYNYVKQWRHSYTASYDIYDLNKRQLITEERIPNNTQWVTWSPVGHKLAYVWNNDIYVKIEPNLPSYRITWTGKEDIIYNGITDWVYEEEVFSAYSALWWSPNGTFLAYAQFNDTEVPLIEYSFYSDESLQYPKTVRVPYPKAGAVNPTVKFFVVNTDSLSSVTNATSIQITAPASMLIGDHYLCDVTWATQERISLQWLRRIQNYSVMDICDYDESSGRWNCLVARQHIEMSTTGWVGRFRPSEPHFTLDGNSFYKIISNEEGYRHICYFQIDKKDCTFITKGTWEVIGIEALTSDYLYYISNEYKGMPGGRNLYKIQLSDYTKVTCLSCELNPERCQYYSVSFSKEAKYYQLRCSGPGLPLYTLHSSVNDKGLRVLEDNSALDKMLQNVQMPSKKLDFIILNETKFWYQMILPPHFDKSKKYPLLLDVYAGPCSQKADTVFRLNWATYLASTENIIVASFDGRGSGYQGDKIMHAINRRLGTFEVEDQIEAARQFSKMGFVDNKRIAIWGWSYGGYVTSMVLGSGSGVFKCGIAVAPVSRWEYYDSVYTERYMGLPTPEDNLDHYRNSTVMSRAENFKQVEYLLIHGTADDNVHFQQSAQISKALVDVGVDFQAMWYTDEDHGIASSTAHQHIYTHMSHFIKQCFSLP

B1: MERS-CoV RBD (E367 to Y606) (domain or fragment)
chain: EAKPSGSVVEQAEGVECDFSPLLSGTPPQVYNFKRLVFTNCNYNLTKLLSLFSVNDFTCSQISPAAIASNCYSSLILDYFSYPLSMKSDLSVSSAGPISQFNYKQSFSNPTCLILATVPHNLTTITKPLKYSYINKCSRFLSDDRTEVPQLVNANQYSPCVSIVPSTVWEDGDYYRKQLSPLEGGGWLVASGSTVAMTEQLQMGFGITVQYGTDTNSVCPKLEFANDTKIASQLGNCVEY
binding result: binds
